Results taken from US20210071139A1.

How the values were obtained:
TOX [1] = target: TOX (UniProt Q66JW3); test: anti-TOX IP from EL4 nuclear extract, LC-MS/MS, MiST vs IgG control
TOX [2] = target: TOX (UniProt Q66JW3); test: TOX co-IP from EL4 nuclear extract, LC-MS/MS, MiST

Chain of TOX (Q66JW3 whole entry): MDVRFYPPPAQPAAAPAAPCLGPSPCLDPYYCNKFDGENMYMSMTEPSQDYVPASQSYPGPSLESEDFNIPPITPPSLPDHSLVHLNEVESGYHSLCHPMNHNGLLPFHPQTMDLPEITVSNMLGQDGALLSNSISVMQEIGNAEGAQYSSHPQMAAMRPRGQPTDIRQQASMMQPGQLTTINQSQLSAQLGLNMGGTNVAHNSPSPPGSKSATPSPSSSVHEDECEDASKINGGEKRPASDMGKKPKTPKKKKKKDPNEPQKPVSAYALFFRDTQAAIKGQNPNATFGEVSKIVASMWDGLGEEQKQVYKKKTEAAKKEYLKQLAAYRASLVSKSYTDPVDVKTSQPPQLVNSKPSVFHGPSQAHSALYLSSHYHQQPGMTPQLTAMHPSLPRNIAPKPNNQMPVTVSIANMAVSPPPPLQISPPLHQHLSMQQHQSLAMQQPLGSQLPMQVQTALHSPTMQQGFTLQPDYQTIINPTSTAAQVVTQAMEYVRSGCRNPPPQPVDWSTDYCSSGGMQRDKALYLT

Binder | Abundance (TOX [1]) | MiST Score (TOX [1]) | Reproducibility (TOX [1]) | Specificity (TOX [1]) | Abundance (TOX [2]) | MiST Score (TOX [2]) | Reproducibility (TOX [2]) | Specificity (TOX [2])
Cwc27 (protein, UniProt Q3TKY6 2-469, looked up) Spliceosome-associated protein CWC27 homolog: SNIYIQEPPTNGKVLLKTTAGDIDIELWSKEAPKACRNFIQLCLEAYYDNTIFHRVVPGFIVQGGDPTGTGTGGESIYGAPFKDEFHSRLRFNRRGLVAMANAGPHDNGSQFFFTLGRADELNNKHTIFGKVTGDTVYNMLRLTEVDIDDEERPRNPHRIKSCEVLFNPFDDITPREIKKPKNEKPEEEVKKLKPKGTKNFSLLSFGEEAEEEEEEVNRVSQSMKGRSKSSHDLLKDDPHLSSVPAVESEKDDATGDLEDDGEDDSAERDEYMEDDEKNLMRERIAKRLKKDASASVKSAGDGEKKPASRSEELRKEARQLKRELLAAKQKKETAIKVEEGREEEEAAPDGAVAEYRREKQKYEALRKQQPKKGTSREDQTLALLSQFKSKLTQAITETPENSVPEAEVEDDEGWMSHVLQFEDKTRKVKDASMQDSDTFEIYDPRNPVNKRRREESKKLLREKKERR | 1.14e-05 | 0.758 | 0.435 | 0.91 |  |  |  | 
Spty2d1 (protein, UniProt Q68FG3 1-682, looked up) Protein SPT2 homolog: MDFREILLIASKGQGVNHVPKRYSLAVGPPKKDPKVKGVQSAAVQAFLRRKEEELRQKALEEKKRKEELVKKRIELKHDKKARAMAKRTKDNFHGYDGIPVEEKTKKKQLVESHLNQGTDQEYDVEEEDFIDYNQAELDQDYEEEQEPPKAESKPKAPLKSAPSPMNFTDLLRLAEKKQFEPVEIKVVKKAEDRPLTAEELREREFLERKHRKKKPEPDAKLPPPVLKKAPSHKDIMGTKPSRGAGDRQLASKGLPFPQAEKKFRPSTASEKQAALSSPKSLPGERTKVGSGSSTQPSLREGHNRPVFNGAGKPRPSTCSPSVPKTPASGTQKSASEHKAKKPLPSHPSHSKPGPTVLSHNKSKSPGVRQPGSNSGSAPGQPNPGTARPTLSSGPVPRRQNGSSSSGPEQSAGGIRKLASNSHLSGRTLNGTNGPGRPASSSSGPGRPISGSAGSGRPVGSSGGPGQPVNNPHDLRRPMNSLSSPGRAVSGPGRSISGSIPAGRTVNSGPGRPVSSLGPGRAVSNPGLPTKPRCTVVSETISSKNIISRSSNGQINGMKPLLSGYRSAQGPQRLPFPTGYKRPREYEEDDDDEYDSEMDDFIEDEGEPQEEISKHIREIFGYDRKKYKDESDYALRYMESSWKEQQKEEAKSLRLGMQEDLEEMRREEEELKRRKAKKLKRH |  |  |  |  | 1.04e-05 | 0.846 | 0.848 | 0.852
